Data taken from the supplement of paper PMC10567573.

B1: FAM189A2 (parent)
chain: GSEAAVIPLDLGCTQVTQDGDIPN

Variants of: B1
Assay: protein stability index of a GFP-peptide fusion (GPS, HEK-293T) (PSI 1-6); higher = more stable
Conditions: c terminus: a fixed tail appended
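Also: lentivirally expressed fusions sorted by FACS into six bins by GFP to DsRed ratio, PSI derived from sequencing read proportions per bin multiplied by bin number.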

Protein stability index of substitutions, site by site:
T14: E 5.51; R 4.41; M 4.86; D 5.25; Y 5.09; S 5.27; H 4.91; I 4.99; C 4.97; Q 5.57; G 5.17; F 3.97; K 5.46; N 5.31; V 5.31
V16: I 5.26; Y 5.05; P 5.52; K 5.09; L 5.06; Q 4.61; G 5.14; H 5.22; R 5; A 4.95; D 5.66; M 4.6; W 4.67; S 4.88; N 5.62
L11: Q 5.33; T 5.44; C 5.25; A 5.54; G 5.6; W 5.38; F 5.39; Y 5.7; R 5.72; D 5.77; H 5.75; M 5.31; N 5.24; E 5.02
P23: C 4.93; L 5.25; H 4.85; A 5.3; E 5.55; R 4.89; F 4.35; K 5.17; S 5.3; V 5.29; N 5.87; Y 4.52
S2: M 4.89; A 5.71; F 4.96; N 5.52; W 3.93; R 5.61; L 4.77; E 5.55; H 5.25; I 5.23; V 4.85; Y 4.8; D 5.51
P8: R 4.53; T 4.42; K 5; M 3.41; D 4.97; F 2.34; S 4.46; Q 4.22; V 2.54; A 4.68; N 5.16; G 5.18; Y 2.83; H 4.74; W 2; L 2.65; E 4.85; C 4.03
N24: T 5.54; M 4.95; S 5.51; R 4.91; D 5.42; E 5.28; G 5.53; H 5.28; F 4.53; I 4.51; L 4.79; C 5.25; W 4.39
Q15: F 4.8; P 5.33; Y 4.5; C 5.31; N 5.75; A 5.45; I 4.72; V 5.12; G 5.46; L 4.12; T 5.24; E 5.77; S 5.4
A5: L 4.57; V 5.08; H 5.2; F 4.64; W 3.95; K 5.19; I 3.79; C 4.9; G 5.36; M 5.01; T 5.43; Q 5.1; S 5.51; D 5.74
T17: G 5; E 5.68; A 5.21; D 5.46; N 5.19; L 4.88; P 5.44; V 5.37; W 4.69; C 5.19; I 4.75; R 5.18; F 5
E3: G 5.11; Q 5.3; P 5.23; H 4.49; C 4.83; M 4.45; D 5.38; S 5.1; A 5.2; W 2.96; N 5.1; Y 4.18; I 3.58
D10: S 5.15; E 5.18; I 3.7; C 4.38; W 4.02; K 4.85; Q 4.92; G 5.29; T 5.34; H 5.26; F 3.9; M 4.02; Y 4.39; L 4.2
